Assay results: patent CN110903395A (SICHUAN KELUN BOTAI BIOMEDICAL CO LTD, dated 2020)
Positions count from the first letter of the chain named. Each block holds one binder with its values, some of them ahead of it.

Target: T1, Trop-2-mFc (human, UniProt P09758 27-274)
T1 construct: Made in-house by 四川科伦博泰; Coated at 1 μg/ml on the ELISA plate; also called 配体Trop-2-mFc
T1 sequence (looked up): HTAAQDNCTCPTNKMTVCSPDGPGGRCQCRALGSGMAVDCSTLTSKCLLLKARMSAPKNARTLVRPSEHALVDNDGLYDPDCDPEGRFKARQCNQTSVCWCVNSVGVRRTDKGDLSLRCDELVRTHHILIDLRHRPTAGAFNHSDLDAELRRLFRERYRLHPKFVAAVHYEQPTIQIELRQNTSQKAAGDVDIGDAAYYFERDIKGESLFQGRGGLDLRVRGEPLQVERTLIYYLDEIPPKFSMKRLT
Assay: ELISA, Trop-2-mFc coated at 1 μg/ml, detection with HRP-anti human IgG(H+L)

B1: 疏水性改造TROP-2抗体M1 (antibody, human IgG1, kappa, V domains shown)
VH: QVQLQQSGSELKKPGASVKVSCKASGYTFTNYGMNWVKQAPGQGLKWMGWINTDSGEPTYTDDFKGRFAFSLDTSVSTAYLQISSLKADDTAVYFCARGGFGSSYWYFDVWGQGSLVTVSS
VL: DIQLTQSPSSLSASVGDRVSITCKASQDVSSAVAWYQQKPGKAPKLLIYSASYRYTGVPDRFSGSGSGTDFTLTISSLQPEDFAVYYCQQHYSTPLTFGAGTKVEIKR
notes: Humanized anti-Trop-2 antibody derived from Sacituzumab by hydrophilic CDR mutations; expressed in CHO-S cells, purified on protein A
EC50: 9.91 nM

B3: 疏水性改造TROP-2抗体M2 (antibody, human IgG1, kappa, V domains shown)
VH: B1 VH
VL: B1 VL with S93I
notes: as for B1
EC50: 13.9 nM

More lines, in order of falling EC50, values ahead:

EC50: 13.1 nM
B2: Sacituzumab抗体 (antibody, V domains shown)
VH: B1 VH with D54Y, S55T
VL: B1 VL with S31I, S93I

EC50: 10.8 nM
B4: 疏水性改造TROP-2抗体M3 (antibody, human IgG1, kappa, V domains shown)
VH: B1 VH
VL: B1 VL with S31I
notes: as for B1
